Test results as given in publication PMC4317013 (The Journal of Biological Chemistry, 2014).

Experiments:
testisin [1] = molecular target: T1, testisin (Mus musculus, UniProt Q9JHJ7); experiment: Cleavage by and complex formation with testisin in solution (SDS-PAGE, Western blotting, Edman degradation); format: biochemical; conditions: for N-terminal testisin cleavage site: Edman degradation of testisin-cleaved protein, Fig. 1D
T1 construct: purchased R&D Systems
Protocol: Activation of protestisin and testisin (R&D Systems, Minneapolis, MN) activity assays were performed according to the instructions of the supplier. Inhibition of testisin by PCI was tested on 96-well F16 Black MaxiSorp plates (Nunc, Roskilde, Denmark). 20 nM testisin was incubated with 200 or 1000 nM (final concentration) rhPCI or rmPCI in the absence or presence of 5 units/ml heparin in 100 μl of testisin buffer (50 mM Tris, 150 mM NaCl, 10 mM CaCl2, pH 7.5). After a 30-min incubation at 37 °C, 100 μl of 0.2 mM fluorogenic substrate I-1295 (Bachem, Bubendorf, Switzerland) dissolved in testisin buffer was added to each well. Plates were read every 15 s at an excitation wavelength of 380 nm and an emission wavelength of 460 nm using a Synergy H4 microplate reader (BioTek, Seattle, WA). The 5-min time point was used to calculate the relative activity. The amidolytic activity of testisin in the absence of PCI was assigned to 1, and for each reaction, the remaining testisin activity was calculated. To detect the possible complex formation between PCI and testisin, different concentrations (7.5–960 nM) of rhPCI or rmPCI, respectively, were incubated with 30 nM testisin for varying times (0–40 min) at 37 °C. The reactions were stopped by adding an equal volume of 2× Laemmli buffer containing 5% 2-mercaptoethanol ([40]). Samples were heated at 99 °C for 5 min followed by sodium dodecyl sulfate-polyacrylamide electrophoresis (SDS-PAGE) and Western blotting. To determine the testisin cleavage sites in human and mouse PCI, WT PCI or PCI mutants (rhPCI, hPCI-R11G, hPCI-R354G, rmPCI, mPCI-A18G, or mPCI-R352G, respectively; 300 nM each) were incubated with 30 nM testisin for 1 h at 37 °C. […]
SDS-PAGE was performed according to the method of Laemmli ([40]) using 10% acrylamide gels. […] The signal was detected using SuperSignal West Femto or SuperSignal West Pico chemiluminescent substrate (Thermo Fisher Scientific, Rockford, IL) with a FluorChem HD2 imaging system (ProteinSimple, Santa Clara, CA). […]

Jurkat T cells [2] = tested on: Jurkat T cells
Protocol: For the internalization experiment, cells were seeded at 1 × 10^6 cells/ml with 8 ml of full medium into 75-cm^2 flasks and treated with respective 200 nM proteins for 2 h or 5 μM peptides for 1 h.
Human A+-helix peptide ([…]; corresponding to the cleaved N-terminal peptide of hPCI), mouse A+-helix peptide ([…]; corresponding to the cleaved N-terminal peptide of mPCI), and TAT peptide ([…]) ([42]) were synthesized and labeled with FITC (GenScript, Piscataway, NJ). […] Fluorescence-activated cell sorting (FACS) analysis was performed with a FACSCalibur flow cytometer (BD Biosciences). Further data analysis was done with Flowing Software ([43]). For confocal microscopy, the fixed cells were suspended with Vectashield mounting medium containing […] DAPI (Vector Laboratories, Burlingame, CA) and transferred onto slides. Confocal images were taken by a Zeiss LSM-510 Meta confocal microscope system (Zeiss, Jena, Germany). Zeiss LSM Image Browser software was applied for further analysis of images.

testisin [3] = experiment: 30 nM testisin in testisin buffer (50 mM Tris, 150 mM NaCl, 10 mM CaCl2, pH 7.5); conditions: 37 °C, up to 120 min
aPC = aPC (Homo sapiens, UniProt P04070); experiment: Interaction of PCI with other proteases: aPC; format: biochemical; conditions: 300 nM rmPCI, 30 nM protease, 37 °C, Fig. 1F
Sequence of aPC (P04070 212-461 limits assumed): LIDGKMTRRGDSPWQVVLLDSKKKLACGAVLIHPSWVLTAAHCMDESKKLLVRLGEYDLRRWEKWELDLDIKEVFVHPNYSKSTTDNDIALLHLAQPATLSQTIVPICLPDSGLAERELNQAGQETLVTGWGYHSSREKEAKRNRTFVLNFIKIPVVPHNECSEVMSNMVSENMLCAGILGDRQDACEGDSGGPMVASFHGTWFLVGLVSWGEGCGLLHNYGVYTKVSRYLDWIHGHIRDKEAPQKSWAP
Sequence of aPC (P04070 43-197 partner limits assumed): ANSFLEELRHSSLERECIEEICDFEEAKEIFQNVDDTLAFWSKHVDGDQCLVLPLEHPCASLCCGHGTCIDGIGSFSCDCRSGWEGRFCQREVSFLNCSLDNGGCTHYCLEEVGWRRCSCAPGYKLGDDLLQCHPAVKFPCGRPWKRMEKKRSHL
Protocol: (§1) Urokinase, aPC, thrombin, or enteropeptidase (30 nM each) was incubated with 300 nM rmPCI, respectively, for different periods (10 or 120 min) at 37 °C. The reactions were stopped by adding an equal volume of 2× Laemmli buffer containing 5% 2-mercaptoethanol ([40]). Samples were heated at 99 °C for 5 min followed by SDS-PAGE and Western blotting.
(§2) SDS-PAGE was performed according to the method of Laemmli ([40]) using 10% acrylamide gels. Following electrophoresis, the proteins were transferred onto PVDF membranes. The membranes were blocked with blotting buffer (5% skim milk powder and 0.05% Tween 20 in PBS, pH 7.4) for 1 h at room temperature. […] The signal was detected using SuperSignal West Femto or SuperSignal West Pico chemiluminescent substrate (Thermo Fisher Scientific, Rockford, IL) with a FluorChem HD2 imaging system (ProteinSimple, Santa Clara, CA).

enteropeptidase = enteropeptidase (Homo sapiens, UniProt P98073); experiment: Interaction of PCI with other proteases: enteropeptidase; format: biochemical; conditions: 300 nM rmPCI, 30 nM protease, 37 °C, Fig. 1F
Sequence of enteropeptidase (P98073 whole entry, species assumed): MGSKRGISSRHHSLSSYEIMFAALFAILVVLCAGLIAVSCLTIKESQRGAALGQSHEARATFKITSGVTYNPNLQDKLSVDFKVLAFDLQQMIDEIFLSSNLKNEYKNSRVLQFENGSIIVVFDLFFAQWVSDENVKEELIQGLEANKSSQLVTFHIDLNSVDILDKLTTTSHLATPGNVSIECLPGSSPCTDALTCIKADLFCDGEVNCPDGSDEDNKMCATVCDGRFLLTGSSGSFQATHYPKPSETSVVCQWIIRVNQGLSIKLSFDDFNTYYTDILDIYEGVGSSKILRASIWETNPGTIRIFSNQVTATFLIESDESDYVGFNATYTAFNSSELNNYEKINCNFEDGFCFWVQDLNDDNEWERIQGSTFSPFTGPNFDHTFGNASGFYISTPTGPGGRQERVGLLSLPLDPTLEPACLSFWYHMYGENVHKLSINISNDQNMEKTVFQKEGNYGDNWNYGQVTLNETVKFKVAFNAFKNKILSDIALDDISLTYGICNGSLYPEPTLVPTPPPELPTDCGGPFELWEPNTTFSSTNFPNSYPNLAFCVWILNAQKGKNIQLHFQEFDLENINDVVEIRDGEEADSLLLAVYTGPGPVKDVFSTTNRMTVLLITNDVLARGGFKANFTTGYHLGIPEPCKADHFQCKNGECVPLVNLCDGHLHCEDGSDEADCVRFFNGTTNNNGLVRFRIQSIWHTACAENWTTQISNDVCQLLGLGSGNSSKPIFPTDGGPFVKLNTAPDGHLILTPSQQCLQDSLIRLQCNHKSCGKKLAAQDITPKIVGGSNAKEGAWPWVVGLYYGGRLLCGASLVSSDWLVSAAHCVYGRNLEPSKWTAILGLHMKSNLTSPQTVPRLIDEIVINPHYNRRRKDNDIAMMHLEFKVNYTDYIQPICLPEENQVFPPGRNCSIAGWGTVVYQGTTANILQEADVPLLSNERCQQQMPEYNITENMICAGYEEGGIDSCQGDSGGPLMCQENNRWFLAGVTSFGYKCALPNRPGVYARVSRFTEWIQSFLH
Protocol: as §1, §2

Jurkat T cells [4] = experiment: Internalization of PCI forms by Jurkat T cells (cell lysis, subcellular fractionation, Western blotting); format: cell-based, human; conditions: 200 nM protein, 2 h, 37 °C, Western blotting with anti-mPCI IgG; for internalization by Jurkat T cells (whole cell lysate and subcellular fractions): full medium, Fig. 3
Protocol: SDS-PAGE was performed according to the method of Laemmli ([40]) using 10% acrylamide gels. Following electrophoresis, the proteins were transferred onto PVDF membranes. The membranes were blocked with blotting buffer (5% skim milk powder and 0.05% Tween 20 in PBS, pH 7.4) for 1 h at room temperature. Rabbit anti-mPCI IgG (diluted 1:1000; homemade), rabbit anti-hPCI IgG (diluted 1:1000; homemade), monoclonal mouse anti-penta-His IgG (diluted 1:500; Qiagen, Hilden, Germany), rabbit anti-testisin IgG (diluted 1:500; Abgent, San Diego, CA), mouse monoclonal anti-A1AT(diluted 1:2000; Fisher Scientific GmbH), rabbit anti-actin IgG (diluted 1:2000; Sigma-Aldrich), monoclonal mouse anti-lamin B2 IgG (diluted 1:2000; Abcam, Cambridge, UK), and monoclonal mouse anti-Hsp 90 IgG (diluted 1:2000; Exbio, Prague, Czech) were used, respectively, in blotting buffer. The respective secondary antibodies were horseradish peroxidase-conjugated donkey anti-rabbit IgG (diluted 1:5000; GE Healthcare Handels GmbH) and horseradish peroxidase-conjugated sheep anti-mouse IgG (diluted 1:5000; GE Healthcare Handels GmbH). The signal was detected using SuperSignal West Femto or SuperSignal West Pico chemiluminescent substrate (Thermo Fisher Scientific, Rockford, IL) with a FluorChem HD2 imaging system (ProteinSimple, Santa Clara, CA).
Jurkat T cells were incubated in full medium with 200 nM rmPCI, testisin-cleaved rmPCI, or ΔR1-A18 mPCI, respectively, at 37 °C for 2 h. 1 × 10^7 cells were harvested and washed three times with PBS. To prepare whole cell lysates, cell pellets were resuspended and incubated in CelLytic M cell lysis buffer at room temperature for 10 min and applied to electrophoresis. Subcellular fractions were prepared as described previously ([41]) with some modifications. In brief, cell pellets were resuspended in 125 μl of buffer A (10 mM Hepes, pH 7.9, 10 mM KCl, 1.5 mM MgCl2, 0.34 M sucrose, 10% glycerol, 1 mM DTT, 0.1% Triton X-100) containing 10 μl of protease inhibitor mixture P8340 (Sigma-Aldrich) and incubated for 8 min. […]

Urokinase = Urokinase (Homo sapiens, UniProt P00749); experiment: Interaction of PCI with other proteases: urokinase; format: biochemical; conditions: 300 nM rmPCI, 30 nM protease, 37 °C, Fig. 1F
Protocol: as §1, §2

T1 sequence (Q9JHJ7 55-298 limits assumed): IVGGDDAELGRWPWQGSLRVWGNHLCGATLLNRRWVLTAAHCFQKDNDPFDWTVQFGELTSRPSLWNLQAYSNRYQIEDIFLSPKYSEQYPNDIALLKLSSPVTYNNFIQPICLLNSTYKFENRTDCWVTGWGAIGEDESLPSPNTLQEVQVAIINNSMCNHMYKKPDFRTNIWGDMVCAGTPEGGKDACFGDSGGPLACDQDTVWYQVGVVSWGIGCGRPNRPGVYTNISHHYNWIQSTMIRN

Molecule: A1AT: serum-derived human α1-antitrypsin (Sigma-Aldrich), another serpin [reference compound]
- cleavage by testisin (Western blotting) (testisin [1]; 300 nM protein, 30 nM testisin, 0–40 min, 37 °C, testisin buffer, Fig. 1A, B): Neither cleavage

Molecule: HRHHPREMKKR [human A+-helix-FITC]
- intracellular localization (confocal microscopy) (Jurkat T cells [2]): cytosolic and nuclear localization

Molecule: HRHHPREMKKRVEDLHVGATV...
- cleaved bond (testisin [3]): Arg11-Val12

Molecule: RRHSHSKKKKAKESSVGA [mouse A+-helix-FITC]
- intracellular localization (confocal microscopy) (Jurkat T cells [2]): cytosolic and nuclear localization

B1: rhPCI: recombinant human protein C inhibitor with N-terminal His tag (protein, UniProt P05154 26-406, looked up)
Plasma serine protease …: EMKKRVEDLHVGATVAPSSRRDFTFDLYRALASAAPSQSIFFSPVSISMSLAMLSLGAGSSTKMQILEGLGLNLQKSSEKELHRGFQQLLQELNQPRDGFQLSLGNALFTDLVVDLQDTFVSAMKTLYLADTFPTNFRDSAGAMKQINDYVAKQTKGKIVDLLKNLDSNAVVIMVNYIFFKAKWETSFNHKGTQEQDFYVTSETVVRVPMMSREDQYHYLLDRNLSCRVVGVPYQGNATALFILPSEGKMQQVENGLSEKTLRKWLKMFKKRQLELYLPKFSIEGSYQLEKVLPSLGISNVFTSHADLSGISNHSNIQVSEMVHKAVVEVDESGTRAAAATGTIFTFRSARLNSQRLVFNRPFLMFIVDNNILFLGKVNRP
modifications: N-terminal His tag
- N-terminal testisin cleavage site (testisin [1]): between Arg^11 and Val^12

B2: rmPCI: recombinant mouse protein C inhibitor with N-terminal His tag (protein, UniProt P70458 25-405, looked up)
Plasma serine protease …: SKKKKAKESSVGAVGPPSSKDFAFRLYRALVSESPGQNVFFSPLSVSMSLGMLSLGAGLKTKTQILDGLGLSLQQGQEDKLHKGFQQLLQRFRQPSDGLQLSLGSALFKDPAVHIRDDFLSAMKTLYMSDTFSTNFGNPEIAKKQINNYVAKQTKGKIVDFIKDLDSTHVMIVVNYIFFKAKWQTAFSETNTHKMDFHVTPKRTTQVPMMNREDGYSYYLDQNISCTVVGIPYQGNAIALFILPSEGKMKQVEDGLDERTLRNWLKMFTKRRLDLYLPKFSIEATYKLENVLPKLGIQDVFTTHADLSGITDHTNIKLSEMVHKSMMEVEESGTTAAAITGAIFTFRSARPSSLKIEFTRPFLLTLMEDSHILFVGKVTRP
modifications: N-terminal His tag
- cleavage by aPC (aPC; 10 or 120 min, anti-mPCI IgG): appearance of a cleaved PCI form
- N-terminal cleavage by aPC (aPC; 120 min, anti-penta-His IgG, N-terminally cleaved form in aPC-PCI complex not completely ruled out): do not cleave the N terminus
- cleavage by enteropeptidase (enteropeptidase; 10 or 120 min, anti-mPCI IgG): appearance of a cleaved PCI form
- N-terminal cleavage by enteropeptidase (enteropeptidase; 120 min, anti-penta-His IgG): do not cleave the N terminus
- internalization by Jurkat T cells (whole cell lysate and subcellular fractions) (Jurkat T cells [4]): taken up by Jurkat T cells and translocated to the nucleus
- detection in subcellular fractions of Jurkat T cells (Jurkat T cells [4]; Fig. 4D): detected in the nuclear envelope fraction
- N-terminal testisin cleavage site (testisin [1]): between Ala^18 and Val^19
- cleavage by urokinase (Urokinase; 10 or 120 min, anti-mPCI IgG): appearance of a cleaved PCI form
- N-terminal cleavage by urokinase (Urokinase; 120 min, anti-penta-His IgG): do not cleave the N terminus

B3: rmPCI preincubated with U937 cells: rmPCI preincubated with testisin-expressing U937 cells (protein, UniProt P70458 25-405, looked up)
Plasma serine protease …: SKKKKAKESSVGAVGPPSSKDFAFRLYRALVSESPGQNVFFSPLSVSMSLGMLSLGAGLKTKTQILDGLGLSLQQGQEDKLHKGFQQLLQRFRQPSDGLQLSLGSALFKDPAVHIRDDFLSAMKTLYMSDTFSTNFGNPEIAKKQINNYVAKQTKGKIVDFIKDLDSTHVMIVVNYIFFKAKWQTAFSETNTHKMDFHVTPKRTTQVPMMNREDGYSYYLDQNISCTVVGIPYQGNAIALFILPSEGKMKQVEDGLDERTLRNWLKMFTKRRLDLYLPKFSIEATYKLENVLPKLGIQDVFTTHADLSGITDHTNIKLSEMVHKSMMEVEESGTTAAAITGAIFTFRSARPSSLKIEFTRPFLLTLMEDSHILFVGKVTRP
modifications: preincubated with U937 cells
- internalization by Jurkat T cells (whole cell lysate and subcellular fractions) (Jurkat T cells [4]): not detected inside Jurkat T cells
